Source: the supplement of paper PMC10567573

B1: GMCL1 (parent)
chain: FCYCAGSHKRKRSSGSFCYCHPDS
B2: FAM9B (parent)
chain: EDLTAKRKRMKMDKTCSKTKNKSK

Variants of: B1
Assay: protein stability index of a GFP-peptide fusion (GPS, HEK-293T) (PSI 1-6); higher = more stable
Conditions: c terminus: a fixed tail appended
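Further: lentivirally expressed fusions sorted by FACS into six bins by GFP to DsRed ratio, PSI derived from sequencing read proportions per bin multiplied by bin number.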

Protein stability index: each site, then its substitutions
S16: H 2
Y19: I 2.52 | C 2.86
A5: H 2.26
C18: D 1.87
S7: I 1.75 | A 2.15 | L 1.89
F1: C 4.1
F17: S 1.78
D23: T 3.04
H21: T 2.47 | P 2.21
C4: N 2.26 | P 1.53
K9: S 2.76
P22: R 2.1 | H 2.29
S13: C 2.17
Y3: W 2.88
H8: I 1.48 | D 1.67

Variants of: B2
Assay: as above
Conditions: c terminus: a fixed tail appended

Protein stability index: each site, then its substitutions
K24: Q 4.59 | L 4.01 | H 4.71 | F 4.83 | N 5 | W 3.98 | D 4.97 | E 5.11 | V 4.62 | A 5.14 | P 4.93 | I 4.68 | T 5.15 | G 4.19 | R 5.06 | C 5.2 | S 4.43 | M 4.96
T15: E 5.2 | R 4.88 | P 5 | D 4.91 | S 4.24 | G 4.55 | C 5.36 | I 5.12 | Q 5.42 | V 4.9 | Y 5 | M 5.11 | A 5 | F 4.8 | N 5.33 | K 4.48 | W 4.78 | H 4.6 | L 5.07
K8: H 4.97 | I 4.4 | R 5.15 | G 4.75 | Y 4.33 | V 5.13 | T 4.97 | L 4.38 | S 5.39 | N 5.53 | W 4.77 | Q 3.39 | P 5.5
S17: Y 5.08 | Q 5.34 | C 5.05 | G 5.02 | W 5.02 | T 5.32 | K 4.55 | V 4.88 | I 5.21 | F 4.24 | P 4.93 | H 4.8 | N 5.85 | A 4.7 | E 5.73 | M 5.39
M12: I 5.03 | S 5.9 | P 5.61 | H 5.44 | Y 5.16 | V 4.45 | G 5.76 | C 5.06 | Q 5.03 | D 5.18 | K 4.79 | E 5.78 | T 5.54 | A 5.02 | R 4.72 | N 4.67 | W 3.86 | L 4.79 | F 4.95
R9: G 4.9 | E 5.12 | A 5.33 | V 5.09 | N 5.38 | K 5.33 | T 5.11 | F 5.14 | Y 5.29 | L 4.04 | M 5.07 | I 4.08 | S 5.47 | W 4.48 | C 5.05 | H 4.49 | P 4.4 | D 5.64 | Q 5.58
K22: M 4.47 | R 5.31 | V 4.39 | C 4.92 | F 4.63 | N 4.83 | L 4.39 | E 4.96 | Y 5.07 | I 3.59 | T 5.11 | G 4.78 | D 5.24 | P 5.58 | H 5 | Q 4.74 | W 4.19 | A 5.4
K20: Q 5.15 | T 5.25 | I 4.75 | S 4.84 | F 4.46 | P 4.75 | D 4.9 | W 4.47 | H 5.24 | R 4.76 | A 4.94 | C 4.57 | L 4.96 | M 4.57 | E 5.07 | V 4.32 | Y 4.43 | G 5.06 | N 4.87
S23: V 5.27 | T 5.31 | A 5.7 | W 4.47 | R 5.24 | I 4.78 | C 5.32 | G 5.07 | E 5.52 | F 4.6 | K 5.06 | L 4.76 | Q 5.1 | H 4.53 | D 5.36 | N 5.12 | Y 5.07 | M 3.93 | P 5.54
K14: S 5.03 | Y 5.22 | M 5.45 | N 5.51 | W 4.73 | V 5.07 | R 5.37 | H 5.36 | P 5.37 | I 3.76 | Q 4.99 | E 5.07 | A 4.99 | G 5.19 | T 5.03 | F 4.48 | L 4.83 | C 4.41 | D 5.14
T19: C 4.99 | H 5.02 | N 5.1 | M 5.15 | F 5.29 | K 5.17 | Q 5.08 | A 5.16 | D 4.97 | L 4.94 | R 5.26 | I 4.9 | W 4.58 | Y 4.75 | P 4.89 | S 5.62 | G 4.94 | V 4.7 | E 5.74
C16: T 5.63 | G 4.11 | Y 5.54 | N 5.46 | F 4.93 | V 5.53 | H 4.66 | P 5.57 | A 4.69 | Q 5.45 | R 5.47 | L 5.05 | M 5.27 | K 4.96 | S 5.33 | E 5.47 | W 5.08 | I 4.71 | D 5.67
K11: Y 4.26 | W 4.83 | T 4.49 | I 4.47 | N 4.45 | H 5.38 | P 5.16 | D 5.22 | C 4.9 | E 5.29 | L 4.62 | R 4.97 | F 5.02 | Q 5.02 | A 5.04 | V 5.08 | M 4.21 | S 4.79 | G 5.19
M10: K 5.31 | S 5.43 | V 5.12 | Q 5.28 | W 4.96 | P 4.75 | E 5.43 | R 5.64 | N 4.23 | C 5.02 | I 5.18 | H 5.43 | D 5.29 | T 5.35 | A 4.25 | F 4.88 | L 5.34 | Y 4.94 | G 4.71
D13: V 5.36 | H 4.64 | G 5.48 | M 3.91 | I 4.89 | P 4.66 | Q 5.41 | S 4.89 | Y 5.14 | K 4.7 | C 4.33 | T 5.01 | N 5.3 | W 4.8 | R 4.49 | F 4.26 | L 4.77 | A 4.99 | E 5.57
N21: I 4.7 | H 5 | A 5.23 | Q 5.51 | E 5.44 | T 5.42 | G 4.78 | F 4.57 | S 5.46 | Y 4.77 | W 4.4 | K 5.33 | P 4.94 | M 4.81 | V 4.11 | L 4.93 | D 5.17 | R 5.25 | C 4.95
K18: F 3.92 | I 4.9 | A 4.86 | E 5.6 | S 4.78 | W 4.35 | L 4.75 | D 5.07 | R 4.81 | H 5.3 | Q 5.57 | Y 4.59 | P 5.87 | V 4.75 | G 4.83 | N 5.18 | M 4.67 | T 4.89 | C 4.96
